Results: US20240392024A1 (SHANGHAI CELGEN BIO PHARMACEUTICAL, published 2024)

What was measured:
[1] = biological target: T1, recombinant human TNFR2 antigen (Kangdai, batch number A100114U) (human, UniProt P20333 23-257); experiment: ELISA, plate coated with recombinant human TNFR2 antigen
T1 construct: also called hTNFR2; TNFR2-FC (Shanghai Saijin Biopharmaceutical Co., Ltd., Qiangke, catalog number A100114U); not shown: Fc part of the bought TNFR2-FC
T1 sequence (looked up): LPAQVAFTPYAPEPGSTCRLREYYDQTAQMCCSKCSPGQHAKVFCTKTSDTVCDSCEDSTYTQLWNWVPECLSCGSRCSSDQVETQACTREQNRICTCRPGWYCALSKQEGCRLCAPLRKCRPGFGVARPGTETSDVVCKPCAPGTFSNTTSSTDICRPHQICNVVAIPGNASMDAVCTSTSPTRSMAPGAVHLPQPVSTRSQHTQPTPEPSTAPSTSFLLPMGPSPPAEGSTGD
Protocol: (§1) After TMB development, the detection was performed using microplate reader: dual wavelength 450 nm/655 nm detection, and results were calculated by OD₄₅₀-OD₆₅₅.

[2] = biological target: T2, recombinant cynomolgus monkey TNFR2 (Cyno. TNFR2) (Sino Biological, 90102-C021) (cynomolgus monkey, UniProt A0A2K5VET2 132-366); experiment: ELISA, plate coated with recombinant cynomolgus monkey TNFR2
T2 sequence: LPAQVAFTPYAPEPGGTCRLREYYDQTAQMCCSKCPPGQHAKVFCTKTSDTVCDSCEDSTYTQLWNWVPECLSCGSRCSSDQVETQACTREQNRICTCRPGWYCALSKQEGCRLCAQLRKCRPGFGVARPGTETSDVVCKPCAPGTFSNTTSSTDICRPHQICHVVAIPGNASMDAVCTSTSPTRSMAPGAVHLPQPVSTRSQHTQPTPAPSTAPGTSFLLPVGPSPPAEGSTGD
Protocol: as §1
(§2) Using the same method as above, the TNFR2 antigens of cynomolgus monkey and mouse (Sino Biological, 90102-C021 and 50128-M08H) were coated separately. The anti-human TNFR2 mouse monoclonal antibodies to be tested were gradient diluted, then added with the anti-mouse Fab segment secondary antibody (Jackson Immuno Research, 515-035-072), and TMB development was performed. ELISA was used to detect the binding of 8 strains of mouse monoclonal antibodies to recombinant mouse TNFR2 (mTNFR2) and cynomolgus monkey TNFR2 (Cyno. TNFR2).

[3] = biological target: T2, recombinant cynomolgus monkey TNFR2 …; experiment: ELISA, coated cynomolgus TNFR2
Protocol: as §1, §2

[4] = biological target: T3, human TNFR2 on the cell membrane (human, UniProt P20333 23-461); experiment: flow cytometry, TNFR2-CHO cells
T3 construct: whole, on cells; One molecule for all cell formats; also called TNFR2-CHO cells; CHO-TNFR2
T3 sequence (looked up): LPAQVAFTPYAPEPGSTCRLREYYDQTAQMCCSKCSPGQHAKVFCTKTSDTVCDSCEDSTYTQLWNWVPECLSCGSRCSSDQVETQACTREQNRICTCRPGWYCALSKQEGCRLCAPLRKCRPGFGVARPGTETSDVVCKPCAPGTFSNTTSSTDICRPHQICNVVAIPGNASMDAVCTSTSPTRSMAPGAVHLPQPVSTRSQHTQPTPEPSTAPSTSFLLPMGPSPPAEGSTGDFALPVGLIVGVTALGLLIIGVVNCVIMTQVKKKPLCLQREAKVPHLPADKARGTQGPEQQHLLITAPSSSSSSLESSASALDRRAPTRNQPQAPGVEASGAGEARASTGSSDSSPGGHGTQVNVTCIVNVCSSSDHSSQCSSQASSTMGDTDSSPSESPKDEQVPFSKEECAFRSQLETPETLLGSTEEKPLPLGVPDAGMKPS
Protocol: (§3) Purified anti-human TNFR2 mouse monoclonal antibodies were co-incubated with TNFR2 overexpressing CHO cell lines (obtained routinely as follows: PCDNA3.4-TNFR2 was transfected into CHO cells, and stable high expression TNFR2 cell lines were obtained through drug screening and monoclonal sorting), and then stained. The antibody binding intensity was analyzed by flow cytometry. The specific steps are as follows: TNFR2-CHO cells were counted, centrifuged, resuspended, then added to a 96-deep well plate, and the supernatant was discarded. The anti-TNFR2 antibodies to be tested were gradient diluted, added to the 96-deep well plate. […] The samples were detected using Beckman CytoFLEX.

[5] = biological target: T1, recombinant human TNFR2 antigen …; experiment: ELISA, coated recombinant human TNFR2
Protocol: as §1

[6] = biological target: T4, recombinant mouse TNFR2 (mTNFR2) (Sino Biological, 50128-M08H) (mouse, UniProt P25119 23-258); experiment: ELISA, plate coated with recombinant mouse TNFR2
T4 sequence (looked up): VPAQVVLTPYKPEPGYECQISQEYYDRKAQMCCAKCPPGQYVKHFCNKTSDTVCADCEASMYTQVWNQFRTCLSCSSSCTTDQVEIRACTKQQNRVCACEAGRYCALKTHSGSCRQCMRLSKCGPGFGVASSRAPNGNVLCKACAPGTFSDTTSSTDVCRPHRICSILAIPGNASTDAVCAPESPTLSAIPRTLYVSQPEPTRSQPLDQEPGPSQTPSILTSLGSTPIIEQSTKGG
Protocol: as §1, §2

[7] = biological target: T3, human TNFR2 on the cell membrane; experiment: flow cytometry on TNFR2-CHO cells
Protocol: as §3

EC50 [1]: 0.146 nM
EC50 [2]: 0.248 nM
EC50 [3]: 0.0371 µg/mL
EC50 [4]: 5.71 µg/mL
EC50 [5]: 0.0218 µg/mL
binding result [6]: no binding
EC50 [7]: 38.3 nM
B1: anti-human TNFR2 mouse monoclonal antibody 16D2 (antibody, V domains shown)
VH: EVQLQQSEPELVKPGASVKIPCKASGYTFTDYNMDWVKQSHGKSLEWIGDINPNNGVTIYNQKFKGKATLTVDKSSSTAYMELRSLTSEDTAVYYCVILEYFDYWGQGTTLTVSS
VL: DIVMTQSTSSMSVSLGDTVSITCHASQGISSNIGWLQQKPGKSFKGLIYHGTKLEDGVPSRFSGSGSGADYSLTISSLESEDFADYYCVQYAQFPRTFGGGTKLEIK
